From PMC3817118

What was measured:
[1] = target: core region of Pced (P_(core)), degradation fragment of HMPV P 158-237 found in the crystal (human metapneumovirus, strain NL1-00); test: crystal structure; vapor diffusion, 25 % PEG 3350, 100 mM HEPES pH 7.5, 20 C, crystal after ~142 days; 3.1 A, molecular replacement with the ab initio P_(core) model; 2 tetramers in the asymmetric unit
[2] = target: central region of the human metapneumovirus phosphoprotein (HMPV P residues 158-237) (human metapneumovirus, strain NL1-00); test: SAXS; Pced in solution at 3-6 mg/ml, 20 C; 20 mM Tris pH 7.5 with 150 mM NaCl, 800 mM NaCl, or NaCl plus 1 M NDSB-201; molecular weight from the volume of correlation Vc compared with the mass of a tetramer

Row | Substance | stoichiometry N [1] | stoichiometry N [2]
1 | core region of Pced (P_(core)), degradation fragment of HMPV P 158-237 found in the crystal (domain or fragment) | 4 | –
2 | central region of the human metapneumovirus phosphoprotein (HMPV P residues 158-237) (domain or fragment) | – | 4
